± gives the standard deviation.
Test: protein stability index of a GFP-peptide fusion (GPS, HEK-293T) (PSI 1-6); higher = more stable
[1] = treatment: DMSO, c terminus: a fixed tail appended
[2] = treatment: MLN4924 1 uM, 8 h, c terminus: a fixed tail appended
[3] = treatment: DMSO, c terminus: native
[4] = treatment: MLN4924 1 uM, 8 h, c terminus: native
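Also: 24-mer peptide tiles fused after GFP, lentivirally expressed, FACS-sorted into six equal bins by GFP/DsRed ratio, decoded by Illumina sequencing, PSI is the read-weighted mean bin number.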

Row | Sequence | protein stability index [1] | protein stability index [2] | protein stability index [3] | protein stability index [4]
1 | SSHSRGPLSWAPCGPIAGSRQALS | 3.42 ± 0.13 | 3.44 ± 0.17 |  | 
2 | GLDVLLAQEVRPRRWKLQVLDLRK [PRAME] | 2.31 ± 0.46 | 2.33 ± 0.48 |  | 
3 | SGSRHPPWARGCGMFTFLSSVTAA [SLC2A12] | 2.48 ± 0.43 | 2.38 ± 0.62 |  | 
4 | ISNIFSNYFSAMYSSEDSTLASVP [ELF3] | 2.2 ± 0.25 | 2.1 ± 0.18 |  | 
5 | PWGFRLQGGKDFNVPLSISRLTPG [PDLIM7] | 2.66 ± 0.18 | 2.66 ± 0.29 |  | 
6 | MMDLRNTPAKSLDKFIEDYLLPDT [OAS1] | 3.04 ± 0.16 | 3.15 ± 0.28 |  | 
7 | GHKRKQPLPKRVAKVPRPPSTLLP [FOXJ1] | 4.02 ± 0.49 | 3.86 ± 0.041 |  | 
8 | IVGIVEKGNRTARIIDKPRVIEVL [SEPHS2] | 2.56 ± 0.29 | 2.27 ± 0.49 |  | 
9 | LTILPTEIETWVREHCPENRERVV [ZNF449] | 3.23 ± 0.2 | 3.42 ± 0.29 |  | 
10 | VEPVCSGLQAQILHCYRDRPHEVL [CHCHD6] | 2.93 ± 0.21 | 2.94 ± 0.5 |  | 
11 | LFDNPKLDKELRAMLREKFPEFCS [INTS3] | 2.03 ± 0.32 | 2.54 ± 0.31 |  | 
12 | SSNLSLDVLRGNDETIGFEDILND [POMP] | 5.08 ± 0.17 | 4.94 ± 0.32 |  | 
13 | FLQKVAQMPQEEVELLPPAPKGKG [BRD3] | 4.24 ± 0.17 | 4.32 ± 0.13 |  | 
14 | ETSYLEMAAGSEPESVEASPVVVE [KMT2E] | 5.38 ± 0.27 | 5.18 ± 0.34 |  | 
15 | VSSSVIEQLFFVRLVGKTPIETLI [NR2F2] | 2.74 ± 0.58 | 3.05 ± 0.37 |  | 
16 | LQQAQAQFRMAQEEARRNRLMRDM [SMG5] | 3.89 ± 0.22 | 4.11 ± 0.27 |  | 
17 | CYMATTKSQTACLPFVLAAAVSRK [EHMT1] | 2.14 ± 0.3 | 2.15 ± 0.15 |  | 
18 | LDVEAAHSEILKYFQSVTSNRWLM [STX5] | 2.06 ± 0.29 | 1.95 ± 0.055 |  | 
19 | LREKLRLREAEIARIRDEEAQRAS [LRRC45] | 4.17 ± 0.56 | 4.65 ± 0.18 |  | 
20 | PVVKLLHNRSNNKYSYTSTSDDNL [KCTD13] | 3.82 ± 0.16 | 3.94 ± 0.19 |  | 
21 | IHTGERPYKCPECGKSFSRSSHLV [ZNF263] | 2.66 ± 0.45 | 3.18 ± 0.55 |  | 
22 | EKAMAEWVKQQAEREAEKEQKRLE [SDE2] | 5.5 ± 0.34 | 5.57 ± 0.18 |  | 

Row | Sequence | protein stability index [1] | protein stability index [2] | protein stability index [3] | protein stability index [4]
23 | GYDHLWDETLSSSHQKCPQLGGPE [PLEKHN1] | 4.19 ± 0.3 | 4.31 ± 0.32 |  | 
24 | GRTENGALAPKQELPSALESHEVP [ZNF24] | 5.24 ± 0.1 | 5.27 ± 0.086 |  | 
25 | LAEYCIKTKVPSNDNSSDLLYDDL [UBE2R2] | 4.13 ± 0.17 | 4.19 ± 0.32 |  | 
26 | QVQLGLRCCGAASYQDWQQNLYFN [TSPAN10] | 3.12 ± 1.1 | 2.81 ± 0.91 |  | 
27 | PMDLSTVKRKMDGREYPDAQGFAA [BRD3] | 4.21 ± 0.2 | 4.38 ± 0.43 |  | 
28 | QDIENALSTSSSPSGTPTNLRRHV [DLC1] | 4.96 ± 0.17 | 4.94 ± 0.2 |  | 
29 | QVADVPEKPRVPAFACQVAGCCQV [ZNF511] | 3.44 ± 0.16 | 3.61 ± 0.35 |  | 
30 | GSAPPRATPGGGTGEAARPHKGLN [PCDHGC5] | 5.19 ± 0.34 | 5.26 ± 0.32 |  | 
31 | FGGGCDLTPTYLNQEDAIHFHRTL [CPOX] | 2.62 ± 0.4 | 2.81 ± 0.3 |  | 
32 | RCEELEDARYKLHHHLHKTLREIT [TEKT4] | 2.81 ± 0.29 | 2.8 ± 0.25 |  | 
33 | NRRGGPPFAFVEFEDPRDAEDAVY [SRSF1] | 3.91 ± 0.21 | 4.21 ± 0.26 |  | 
34 | GPDGHLPAVATLCDLFDREIVVTI [ESRRA] | 3.01 ± 0.7 | 2.91 ± 0.41 |  | 
35 | EQTCDPDSSLHWSSSYSPETFRQQ [ZNF396] | 4.43 ± 0.12 | 4.58 ± 0.12 |  | 
36 | KEGARNIRTSERVTLIVDNTRFVV [BTBD10] | 1.95 ± 0.32 | 2.29 ± 0.34 |  | 
37 | QKGLGGAMVWALDLDDFAGFSCNQ [CHIT1] | 2.31 ± 0.32 | 2.42 ± 0.16 |  | 
38 | KKIQVNSKPSIQPKPLLLPAAPKT [ATF6] | 4.18 ± 0.17 | 4.221 ± 0.027 |  | 
39 | RAKDLVELDPEVEGTKPSATEMIW [GOLPH3L] | 4.07 ± 0.23 | 4.13 ± 0.45 |  | 
40 | KGERRREPGGYDSSSTLMSSELET [DVL3] | 5.19 ± 0.19 | 5.15 ± 0.13 |  | 
41 | QLDSRYWRITNAKGDVEEVQGPGV [FBXO3] | 4.14 ± 0.22 | 4.22 ± 0.14 |  | 
42 | TEGAFGLYRGLAPNFMKVIPAVSI [SLC25A25] | 1.88 ± 0.51 | 2.39 ± 0.66 |  | 
43 | DSASLPRKPSVPWQRQMDQPQDRN [RASAL3] | 4.65 ± 0.22 | 4.78 ± 0.23 |  | 
44 | GSARYDFSHEILRDEESFFGERRI [ALKBH7] | 3.75 ± 0.29 | 3.71 ± 0.5 |  | 

Row | Sequence | protein stability index [1] | protein stability index [2] | protein stability index [3] | protein stability index [4]
45 | LPFRDASFGNCTYNLTILDCLQGI [CDC14A] | 2.44 ± 0.59 | 2.71 ± 0.49 |  | 
46 | SVSLRKAERLRAELLDLKAGGFSI [MYORG] | 2.25 ± 0.36 | 2.39 ± 0.29 |  | 
47 | LAQEAEAWLNYPCFKNWDGSPVSS [OAS1] | 3.04 ± 0.28 | 3.11 ± 0.35 |  | 
48 | ASHNGISYKDLDVIFGVELPGNEE [TENT5D] | 4.03 ± 0.16 | 4.01 ± 0.13 |  | 
49 | TSSLRLNWEAPPGAFDSFLLRFGV [TNXB] | 2.06 ± 0.27 | 2.21 ± 0.56 |  | 
50 | VNKITFSEQCYYIFGDLCGNMANL [DVL3] | 2.66 ± 0.38 | 2.36 ± 0.37 |  | 
51 | VRTSYQPSSPGRFTKETTQKNFNN [TRIM29] | 3.93 ± 0.15 | 3.88 ± 0.22 |  | 
52 | LTVEGFQSWMWRGLTFLLPFLFFG [TMEM120A] | 2.98 ± 0.45 | 2.74 ± 0.035 |  | 
53 | AAKKVAPLMAKAIRDYKGRFSRR [ELOA2] |  |  | 2.79 ± 0.33 | 3.02 ± 0.62
54 | DESVVMPESQMCRKFSRECEDQKQ [NEUROD6] | 5.46 ± 0.3 | 5.43 ± 0.24 |  | 
55 | GLSESSGPHTISNQNNYRLLSCGK [ACSBG2] | 4.55 ± 0.41 | 4 ± 0.28 |  | 
56 | VLALFVYVAWNEGSRQWREGKQD [VMA21] |  |  | 2.51 ± 0.49 | 2.85 ± 1.1
57 | PAPPSDALLDLHFPSDHLGDLGDP [TFE3] | 5 ± 0.23 | 5.1 ± 0.17 |  | 
58 | MADERKDEAKAPHWTSAPLTEASA [MAP2] | 5.22 ± 0.43 | 5.41 ± 0.19 |  | 
59 | QALLKENRLLQEENRTLQVLRAEH [CBY2] | 4.02 ± 0.2 | 4.2 ± 0.065 |  | 
60 | LASGPGKYMPHLCQDSSGEVSCQC | 3.99 ± 0.12 | 4.1 ± 0.27 |  | 
61 | SPEALSLGEVAYHDYHGILVDEEE [ADD1] | 5.58 ± 0.27 | 5.54 ± 0.13 |  | 
62 | YLWMCSTLALLLNFLACLASFCVE [SCAMP3] | 3.53 ± 0.36 | 3.02 ± 0.12 |  | 
63 | MPNGCSDDVLPWRRTAENKLDTKY [DCTD] | 4 ± 0.1 | 3.87 ± 0.29 |  | 
64 | RASALLASCSKNCTNSPAIVRFSG [FBXO34] | 2.24 ± 0.24 | 2.59 ± 0.19 |  | 
65 | TIEDEDVKARKQEIIKVTEQLIEA [CAMK2D] | 5.25 ± 0.075 | 5.26 ± 0.11 |  | 
